The supplement of paper PMC9112550, “Optimization of the antimicrobial peptide Bac7 by deep mutational scanning” (BMC Biology, 2022)

system: Escherichia coli TOP10; assay: shrunken log2 fold change of peptide-encoding DNA abundance (4.5 h post-induction vs induction); higher = less antimicrobial activity (less host growth inhibition); details: time post-induction: 4.5 h; library: site-saturation at positions 5, 18, 19, 20
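Note: peptides expressed intracellularly from a pBAD plasmid library in pooled LB shake-flask culture, induced with 0.3% L-arabinose, DNA abundance read by NGS, three biological replicates, DESeq2 with apeglm shrinkage.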

Sequence	shrunken log2 fold change
RRIRHRPPRLPRPRPRPLSGPRP	-0.35
RRIRGRPPRLPRPRPRPMNNPRP	0.18
RRIRQRPPRLPRPRPRPEARPRP	-0.00982
RRIRSRPPRLPRPRPRPLTMPRP	-0.242
RRIRDRPPRLPRPRPRPVEKPRP	0.0436
RRIRQRPPRLPRPRPRPHNQPRP	-0.644
RRIRTRPPRLPRPRPRPLEWPRP	0.178
RRIRERPPRLPRPRPRPEGCPRP	-0.318
RRIRPRPPRLPRPRPRPMYKPRP	-0.323
RRIRYRPPRLPRPRPRPCRMPRP	-0.0503
RRIRHRPPRLPRPRPRPPEIPRP	0.0979
RRIRMRPPRLPRPRPRPRGVPRP	1.23
RRIRPRPPRLPRPRPRPTLQPRP	0.353
RRIRERPPRLPRPRPRPIKCPRP	-0.0487
RRIRERPPRLPRPRPRPVRMPRP	0.11
RRIRNRPPRLPRPRPRPSYIPRP	-0.637
RRIRMRPPRLPRPRPRPTAYPRP	0.513
RRIRHRPPRLPRPRPRPEYQPRP	-0.3
RRIRNRPPRLPRPRPRPIDGPRP	-0.00962
RRIRDRPPRLPRPRPRPWAYPRP	0.0388
RRIRPRPPRLPRPRPRPQPDPRP	-0.0815
RRIRLRPPRLPRPRPRPEQMPRP	0.126
RRIRMRPPRLPRPRPRPAQRPRP	0.987
RRIRRRPPRLPRPRPRPDSWPRP	0.115
RRIRNRPPRLPRPRPRPSLGPRP	0.0885

Sequence	shrunken log2 fold change
RRIRIRPPRLPRPRPRPHNTPRP	-0.961
RRIRARPPRLPRPRPRPKRNPRP	0.487
RRIRARPPRLPRPRPRPKTMPRP	0.352
RRIRWRPPRLPRPRPRPNETPRP	0.0101
RRIRFRPPRLPRPRPRPTCKPRP	-0.295
RRIRERPPRLPRPRPRPLLPPRP	-0.119
RRIRQRPPRLPRPRPRPQIPPRP	-0.214
RRIRHRPPRLPRPRPRPSETPRP	-0.0359
RRIRLRPPRLPRPRPRPELNPRP	0.145
RRIRWRPPRLPRPRPRPPTMPRP	0.264
RRIRHRPPRLPRPRPRPKGCPRP	0.031
RRIRPRPPRLPRPRPRPQEDPRP	-0.0602
RRIRCRPPRLPRPRPRPTLTPRP	-0.14
RRIRSRPPRLPRPRPRPTAQPRP	0.405
RRIRSRPPRLPRPRPRPNHTPRP	-0.444
RRIRKRPPRLPRPRPRPVGTPRP	2.46
RRIRIRPPRLPRPRPRPYAKPRP	-0.207
RRIRARPPRLPRPRPRPIFHPRP	0.183
RRIRQRPPRLPRPRPRPMVHPRP	-0.0226
RRIRIRPPRLPRPRPRPLQIPRP	-0.165
RRIRIRPPRLPRPRPRPTFWPRP	0.407
RRIRTRPPRLPRPRPRPLTLPRP	-0.241
RRIRGRPPRLPRPRPRPCCTPRP	1.31
RRIRLRPPRLPRPRPRPIVDPRP	-0.103
RRIRYRPPRLPRPRPRPPAGPRP	0.322

Sequence	shrunken log2 fold change
RRIRWRPPRLPRPRPRPLPPPRP	0.686
RRIRERPPRLPRPRPRPMSKPRP	-0.439
RRIRTRPPRLPRPRPRPDCNPRP	0.0556
RRIRQRPPRLPRPRPRPDHMPRP	0.0119
RRIRQRPPRLPRPRPRPKCIPRP	-0.0337
RRIRARPPRLPRPRPRPYVMPRP	-0.211
RRIRRRPPRLPRPRPRPYNAPRP	-0.964
RRIRARPPRLPRPRPRPFVCPRP	-0.476
RRIRYRPPRLPRPRPRPIQGPRP	-0.0804
RRIRVRPPRLPRPRPRPGHGPRP	0.00601
RRIRMRPPRLPRPRPRPCALPRP	0.738
RRIRYRPPRLPRPRPRPDSNPRP	-2.93
RRIRIRPPRLPRPRPRPGYHPRP	-0.298
RRIRGRPPRLPRPRPRPHYHPRP	-0.421
RRIRKRPPRLPRPRPRPQTFPRP	0.117
RRIRPRPPRLPRPRPRPKMQPRP	0.132
RRIRWRPPRLPRPRPRPLNWPRP	0.101
RRIRPRPPRLPRPRPRPAGEPRP	0.418
RRIRSRPPRLPRPRPRPFNTPRP	-0.257
RRIRGRPPRLPRPRPRPCNFPRP	0.138
RRIRTRPPRLPRPRPRPKAQPRP	-0.0875
RRIRPRPPRLPRPRPRPWEVPRP	-0.0677
RRIRFRPPRLPRPRPRPQLPPRP	-0.0654
RRIRWRPPRLPRPRPRPLTCPRP	0.0568
RRIRPRPPRLPRPRPRPLLQPRP	0.16

Sequence	shrunken log2 fold change
RRIRRRPPRLPRPRPRPGHRPRP	0.192
RRIRSRPPRLPRPRPRPHHMPRP	-1.11
RRIRWRPPRLPRPRPRPYPSPRP	-0.0856
RRIRLRPPRLPRPRPRPIHRPRP	-0.163
RRIRWRPPRLPRPRPRPCDYPRP	-0.0182
RRIRTRPPRLPRPRPRPLGCPRP	0.0809
RRIRDRPPRLPRPRPRPVCLPRP	0.345
RRIRDRPPRLPRPRPRPDWWPRP	0.0503
RRIRYRPPRLPRPRPRPQRDPRP	-0.256
RRIRNRPPRLPRPRPRPEEGPRP	0.234
RRIRTRPPRLPRPRPRPAMAPRP	0.392
RRIRLRPPRLPRPRPRPSTEPRP	0.0451
RRIRKRPPRLPRPRPRPYCIPRP	-0.0175
RRIRHRPPRLPRPRPRPGYNPRP	-0.418
RRIRFRPPRLPRPRPRPYFDPRP	-0.489
RRIRLRPPRLPRPRPRPAFAPRP	0.368
RRIRDRPPRLPRPRPRPNDQPRP	-0.154
RRIRCRPPRLPRPRPRPGKSPRP	0.0822
RRIRMRPPRLPRPRPRPHDWPRP	1.45
RRIRVRPPRLPRPRPRPWDVPRP	-0.0177
RRIRCRPPRLPRPRPRPGFMPRP	-0.429
RRIRRRPPRLPRPRPRPLPKPRP	0.634
RRIRDRPPRLPRPRPRPNWVPRP	0.0019
RRIRLRPPRLPRPRPRPQSRPRP	-0.377
RRIRYRPPRLPRPRPRPAAMPRP	1.99

Sequence	shrunken log2 fold change
RRIRWRPPRLPRPRPRPPNAPRP	0.675
RRIRIRPPRLPRPRPRPLEEPRP	0.073
RRIRIRPPRLPRPRPRPEKPPRP	-0.0144
RRIRQRPPRLPRPRPRPNHPPRP	-0.249
RRIRPRPPRLPRPRPRPMHKPRP	0.0775
RRIRYRPPRLPRPRPRPWELPRP	0.0358
RRIRIRPPRLPRPRPRPFRMPRP	-0.91
RRIRFRPPRLPRPRPRPYMAPRP	-0.688
RRIRWRPPRLPRPRPRPKRNPRP	0.432
RRIRFRPPRLPRPRPRPLGHPRP	-0.0599
RRIRKRPPRLPRPRPRPRMKPRP	0.346
RRIRVRPPRLPRPRPRPQIPPRP	-0.298
RRIRGRPPRLPRPRPRPVNKPRP	0.0892
RRIRERPPRLPRPRPRPQDHPRP	-0.0577
RRIRYRPPRLPRPRPRPNLYPRP	-0.658
RRIRGRPPRLPRPRPRPIVRPRP	0.211
RRIRTRPPRLPRPRPRPDLCPRP	0.144
RRIRIRPPRLPRPRPRPGEWPRP	-0.01
RRIRIRPPRLPRPRPRPWGWPRP	0.0753
RRIRTRPPRLPRPRPRPNYFPRP	-0.062
RRIRNRPPRLPRPRPRPNDAPRP	-0.221
RRIRHRPPRLPRPRPRPFYMPRP	-0.292
RRIRGRPPRLPRPRPRPWEVPRP	0.0273
RRIRLRPPRLPRPRPRPTVEPRP	0.114
RRIRHRPPRLPRPRPRPVNIPRP	-0.459

Sequence	shrunken log2 fold change
RRIRFRPPRLPRPRPRPITAPRP	-0.286
RRIRHRPPRLPRPRPRPVKCPRP	-0.00443
RRIRIRPPRLPRPRPRPCKCPRP	-0.0887
RRIRSRPPRLPRPRPRPFNNPRP	-0.458
RRIRKRPPRLPRPRPRPNNNPRP	-0.255
RRIRNRPPRLPRPRPRPLANPRP	0.142
RRIRSRPPRLPRPRPRPAAVPRP	0.418
RRIRMRPPRLPRPRPRPQNNPRP	-0.13
RRIRYRPPRLPRPRPRPGWKPRP	0.00711
RRIRMRPPRLPRPRPRPRAAPRP	3.2
RRIRLRPPRLPRPRPRPRMKPRP	-0.00259
RRIRERPPRLPRPRPRPHLAPRP	0.101
RRIRIRPPRLPRPRPRPHIIPRP	-0.614
RRIRVRPPRLPRPRPRPADVPRP	0.000571
RRIRHRPPRLPRPRPRPPDFPRP	0.0633
RRIRNRPPRLPRPRPRPPEMPRP	0.0979
RRIRRRPPRLPRPRPRPWAHPRP	0.0718
RRIRYRPPRLPRPRPRPSSCPRP	-0.101
RRIRHRPPRLPRPRPRPVGEPRP	0.053
RRIRKRPPRLPRPRPRPFAYPRP	0.0165
RRIRVRPPRLPRPRPRPGSTPRP	-0.311
RRIRVRPPRLPRPRPRPNGNPRP	-0.323
RRIRRRPPRLPRPRPRPHLFPRP	0.0328
RRIRCRPPRLPRPRPRPDIMPRP	-0.0409
RRIRKRPPRLPRPRPRPCVEPRP	0.13
